Results reported in US20150246959A1 (US Dept. of Health and Human Services, published 2015).

Experiments:
Test in all cases: cell-based or functional assay
[1] = biological target: MAGE-A3: 243-256 peptide presented by HLA-DP*0401 on 293-CIITA cells (human, UniProt P20036 29-260)
[2] = biological target: MAGE-A3: 243-255 peptide presented by HLA-DP*0401 on 293-CIITA cells (human, UniProt P20036 29-260)
[3] = biological target: MAGE-A3: 243-254 peptide presented by HLA-DP*0401 on 293-CIITA cells (human, UniProt P20036 29-260)
[4] = biological target: MAGE-A3: 243-253 peptide presented by HLA-DP*0401 on 293-CIITA cells (human, UniProt P20036 29-260)
[5] = biological target: MAGE-A3: 245-258 peptide presented by HLA-DP*0401 on 293-CIITA cells (human, UniProt P20036 29-260)
[6] = biological target: MAGE-A3: 246-258 peptide presented by HLA-DP*0401 on 293-CIITA cells (human, UniProt P20036 29-260)
[7] = biological target: MAGE-A3: 247-258 peptide presented by HLA-DP*0401 on 293-CIITA cells (human, UniProt P20036 29-260)
[8] = biological target: MAGE-A3: 248-258 peptide presented by HLA-DP*0401 on 293-CIITA cells (human, UniProt P20036 29-260)
[9] = biological target: MAGE-A3: 249-258 peptide presented by HLA-DP*0401 on 293-CIITA cells (human, UniProt P20036 29-260)
[10] = biological target: MAGE-A6: 248-258 peptide presented by HLA-DP*0401 on 293-CIITA cells (human, UniProt P20036 29-260)
[11] = biological target: MAGE-A2/A12: 248-258 peptide presented by HLA-DP*0401 on 293-CIITA cells (human, UniProt P20036 29-260)
[12] = biological target: MAGE-A4/A9: 249-259 peptide presented by HLA-DP*0401 on 293-CIITA cells (human, UniProt P20036 29-260)
[13] = biological target: MAGE-A8: 251-261 peptide presented by HLA-DP*0401 on 293-CIITA cells (human, UniProt P20036 29-260)
[14] = biological target: MAGE-A1/B4: 241-251 peptide presented by HLA-DP*0401 on 293-CIITA cells (human, UniProt P20036 29-260)
[15] = biological target: MAGE-B2: 250-260 peptide presented by HLA-DP*0401 on 293-CIITA cells (human, UniProt P20036 29-260)
[16] = biological target: MAGE-B10: 250-260 peptide presented by HLA-DP*0401 on 293-CIITA cells (human, UniProt P20036 29-260)
[17] = biological target: MAGE-B16: 252-262 peptide presented by HLA-DP*0401 on 293-CIITA cells (human, UniProt P20036 29-260)
[18] = biological target: MAGE-C1: 113-123 peptide presented by HLA-DP*0401 on 293-CIITA cells (human, UniProt P20036 29-260)
[19] = biological target: MAGE-D4: 300-315 peptide presented by HLA-DP*0401 on 293-CIITA cells (human, UniProt P20036 29-260)
[20] = biological target: MAGE-D2: 413-428 peptide presented by HLA-DP*0401 on 293-CIITA cells (human, UniProt P20036 29-260)
[21] = biological target: MAGE-L2: 582-597 peptide presented by HLA-DP*0401 on 293-CIITA cells (human, UniProt P20036 29-260)
[22] = biological target: MAGE-G1: 220-235 peptide presented by HLA-DP*0401 on 293-CIITA cells (human, UniProt P20036 29-260)
[23] = biological target: Necdin: 237-247 peptide presented by HLA-DP*0401 on 293-CIITA cells (human, UniProt P20036 29-260)
[24] = biological target: MAGE-A3: 243-258 peptide presented by HLA-DP*0401 on 293-CIITA cells (human, UniProt P20036 29-260)

IFN-g (pg/ml); CD4+ T cells of PBMC-1; 293-CIITA pulsed with peptide [1]: 1820 pg/mL
IFN-g (pg/ml); CD4+ T cells of PBMC-2; 293-CIITA pulsed with peptide [1]: 2490 pg/mL
IFN-g (pg/ml); CD4+ T cells of PBMC-1; 293-CIITA pulsed with peptide [2]: 137 pg/mL
IFN-g (pg/ml); CD4+ T cells of PBMC-2; 293-CIITA pulsed with peptide [2]: 117 pg/mL
IFN-g (pg/ml); CD4+ T cells of PBMC-1; 293-CIITA pulsed with peptide [3]: 0 pg/mL
IFN-g (pg/ml); CD4+ T cells of PBMC-2; 293-CIITA pulsed with peptide [3]: 39 pg/mL
IFN-g (pg/ml); CD4+ T cells of PBMC-1; 293-CIITA pulsed with peptide [4]: 40 pg/mL
IFN-g (pg/ml); CD4+ T cells of PBMC-2; 293-CIITA pulsed with peptide [4]: 45 pg/mL
IFN-g (pg/ml); CD4+ T cells of PBMC-1; 293-CIITA pulsed with peptide [5]: 15000 pg/mL
IFN-g (pg/ml); CD4+ T cells of PBMC-2; 293-CIITA pulsed with peptide [5]: 17800 pg/mL
IFN-g (pg/ml); CD4+ T cells of PBMC-1; 293-CIITA pulsed with peptide [6]: 12700 pg/mL
IFN-g (pg/ml); CD4+ T cells of PBMC-2; 293-CIITA pulsed with peptide [6]: 16200 pg/mL
IFN-g (pg/ml); CD4+ T cells of PBMC-1; 293-CIITA pulsed with peptide [7]: 10600 pg/mL
IFN-g (pg/ml); CD4+ T cells of PBMC-2; 293-CIITA pulsed with peptide [7]: 13300 pg/mL
IFN-g (pg/ml); CD4+ T cells of PBMC-1; 293-CIITA pulsed with peptide [8]: 9000 pg/mL
IFN-g (pg/ml); CD4+ T cells of PBMC-2; 293-CIITA pulsed with peptide [8]: 8700 pg/mL
IFN-g (pg/ml); CD4+ T cells of PBMC-1; 293-CIITA pulsed with peptide [9]: 1640 pg/mL
IFN-g (pg/ml); CD4+ T cells of PBMC-2; 293-CIITA pulsed with peptide [9]: 2030 pg/mL
IFN-g (pg/ml); CD4+ T cells of PBMC-1; 293-CIITA pulsed with peptide [10]: 11800 pg/mL
IFN-g (pg/ml); CD4+ T cells of PBMC-2; 293-CIITA pulsed with peptide [10]: 8370 pg/mL
IFN-g (pg/ml); CD4+ T cells of PBMC-1; 293-CIITA pulsed with peptide [11]: 66 pg/mL
IFN-g (pg/ml); CD4+ T cells of PBMC-2; 293-CIITA pulsed with peptide [11]: 56 pg/mL
IFN-g (pg/ml); CD4+ T cells of PBMC-1; 293-CIITA pulsed with peptide [12]: 23 pg/mL
IFN-g (pg/ml); CD4+ T cells of PBMC-2; 293-CIITA pulsed with peptide [12]: 26 pg/mL
IFN-g (pg/ml); CD4+ T cells of PBMC-1; 293-CIITA pulsed with peptide [13]: 58 pg/mL
IFN-g (pg/ml); CD4+ T cells of PBMC-2; 293-CIITA pulsed with peptide [13]: 41 pg/mL
IFN-g (pg/ml); CD4+ T cells of PBMC-1; 293-CIITA pulsed with peptide [14]: 126 pg/mL
IFN-g (pg/ml); CD4+ T cells of PBMC-2; 293-CIITA pulsed with peptide [14]: 84 pg/mL
IFN-g (pg/ml); CD4+ T cells of PBMC-1; 293-CIITA pulsed with peptide [15]: 0 pg/mL
IFN-g (pg/ml); CD4+ T cells of PBMC-2; 293-CIITA pulsed with peptide [15]: 20 pg/mL
IFN-g (pg/ml); CD4+ T cells of PBMC-1; 293-CIITA pulsed with peptide [16]: 18 pg/mL
IFN-g (pg/ml); CD4+ T cells of PBMC-2; 293-CIITA pulsed with peptide [16]: 34 pg/mL
IFN-g (pg/ml); CD4+ T cells of PBMC-1; 293-CIITA pulsed with peptide [17]: 27 pg/mL
IFN-g (pg/ml); CD4+ T cells of PBMC-2; 293-CIITA pulsed with peptide [17]: 28 pg/mL
IFN-g (pg/ml); CD4+ T cells of PBMC-1; 293-CIITA pulsed with peptide [18]: 0 pg/mL
IFN-g (pg/ml); CD4+ T cells of PBMC-2; 293-CIITA pulsed with peptide [18]: 27 pg/mL
IFN-g (pg/ml); CD4+ T cells of PBMC-1; 293-CIITA pulsed with peptide [19]: 234 pg/mL
IFN-g (pg/ml); CD4+ T cells of PBMC-2; 293-CIITA pulsed with peptide [19]: 268 pg/mL
IFN-g (pg/ml); CD4+ T cells of PBMC-1; 293-CIITA pulsed with peptide [20]: 43 pg/mL
IFN-g (pg/ml); CD4+ T cells of PBMC-2; 293-CIITA pulsed with peptide [20]: 223 pg/mL
IFN-g (pg/ml); CD4+ T cells of PBMC-1; 293-CIITA pulsed with peptide [21]: 56 pg/mL
IFN-g (pg/ml); CD4+ T cells of PBMC-2; 293-CIITA pulsed with peptide [21]: 107 pg/mL
IFN-g (pg/ml); CD4+ T cells of PBMC-1; 293-CIITA pulsed with peptide [22]: 29 pg/mL
IFN-g (pg/ml); CD4+ T cells of PBMC-2; 293-CIITA pulsed with peptide [22]: 33 pg/mL
IFN-g (pg/ml); CD4+ T cells of PBMC-1; 293-CIITA pulsed with peptide [23]: 22 pg/mL
IFN-g (pg/ml); CD4+ T cells of PBMC-2; 293-CIITA pulsed with peptide [23]: 32 pg/mL
IFN-g (pg/ml); CD4+ T cells of PBMC-1; 293-CIITA pulsed with peptide [24]: 15200 pg/mL
IFN-g (pg/ml); CD4+ T cells of PBMC-2; 293-CIITA pulsed with peptide [24]: 17500 pg/mL
B1: 6F9mC TCR (TCR)
TCR alpha: QTVTQSQPEMSVQEAETVTLSCTYDTSESDYYLFWYKQPPSRQMILVIRQEAYKQQNATENRFSVNFQKAAKSFSLKISDSQLGDAAMYFCALRSSGTYKYIFGTGTRLKVLANIQNPEPAVYQLKDPRSQDSTLCLFTDFDSQINVPKTMESGTFITDKTVLDMKAMDSKSNGAIAWSNQTSFTCQDIFKETNATYPSSDVPCDATLTEKSFETDMNLNFQNLSVMGLRILLLKVAGFNLLMTLRLWSS
TCR beta: GAGVSQSPSNKVTEKGKDVELRCDPISGHTALYWYRQSLGQGLEFLIYFQGNSAPDKSGLPSDRFSAERTGGSVSTLTIQRTQQEDSAVYLCASIRTGPFFSGNTIYFGEGSWLTVVEDLRNVTPPKVSLFEPSKAEIANKQKATLVCLARGFFPDHVELSWWVNGKEVHSGVSTDPQAYKESNYSYCLSSRLRVSATFWHNPRNHFRCQVQFHGLSEEDKWPEGSPKPVTQNISAEAWGRADCGITSASYHQGVLSATILYEILLGKATLYAVLVSGLVLMAMVKRKNS
